Literature values, collected in article PMC5408752.
pKd: −log10 of the molar value.

Tests used:
[1] = target: NisA leader leader (Lactococcus lactis) (UniProt P13068); assay: isothermal titration calorimetry
[2] = target: NisA precursor (Lactococcus lactis) (UniProt P13068); assay: isothermal titration calorimetry
[3] = target: nisin (Lactococcus lactis) (UniProt P13068); assay: NMR titration

pKd [1] | pKd [2] | pKd [3] | Substance
5.42 | 5.70 |  | NisC (from UniProt Q03202)
 |  | 4.66 | NisI CTD (from UniProt P42708)
